# Data from PMC6275602 (Cellular & Molecular Biology Letters, 2012).
# Where two headings read alike, the source gives them in different places.
# Legend:
# [1] = target: T1, human low-density lipoprotein (LDL; d = 1.019-1.063 g/ml) (human); assay: SPR
# [2] = target: T1, human low-density lipoprotein (LDL; d = …); assay: SPR; remark: listed apart in the source
binder,measurement,setting,value
"sPLA2-X-HisTag, purified recombinant human (enzyme, UniProt O15496 43-165, looked up) GILELAGTVGCVGPRTPIAYMKYGCFCGLGGHGQPRDAIDWCCHGHDCCYTRAEEAGCSPKTERYSWQCVNQSVLCGPAENKCQELLCKCDQEIANCLAQTEYNLKYLFYPQFLCEPDSPKCD",Kd,[1],110 nM
same,koff,[1],0.00886 s⁻¹
same,kon,[1],82500 M⁻¹ s⁻¹
same,Kd,[2],3.1 nM
same,koff,[2],0.00024 s⁻¹
same,kon,[2],65400 M⁻¹ s⁻¹
